What was measured:
[1] = biological target: T1, CD3 (Cluster of Differentiation 3 protein), human, on T cells / Jurkat cells (human, UniProt P07766 23-207; P04234 22-171; P09693 23-182); assay: FACS, Jurkat cells, antibody at 50 µg/ml
T1 construct: whole, on cells; part of the TCR-CD3 complex; also called human CD3
Experimental: (§1) The binding affinities of the generated humanized Fab-scFv-Fab bispecific antibodies were determined by FACS analysis. […] (a) Jurkat cells were washed by Staining Buffer (PBS+1% BSA) in round bottom 96-well plate. [0833] (b) Antibody dilutions and cells were added to each well, incubated at 4 degrees for 1 hour. [0834] (c) Cells were spined down at 300 g for 3 minutes, and the supernatants were discarded. [0835] (d) Cells were washed with Staining Buffer. […] (e) Step (d) was repeated and the cells were incubated for 0.5 hours at 4 degrees with secondary antibody in Staining Buffer. [0837] (f) After incubation, step (d)-(e) were repeated. […] (g) Staining Buffer was added and fluorescence signals were recorded by flow cytometry.

[2] = biological target: T1, CD3 (Cluster of Differentiation 3 …); assay: FACS, CD3+ T cells isolated from normal donors
Experimental: To evaluate the binding affinity of the generated chimeric bispecific antibody to T cells, the isolated CD3⁺ T cells were stained by antibodies and the binding affinity was determined by FACS analysis. The protocol of FACS analysis is described as follows: [0785] (a) CD3⁺ T cells were isolated from normal donors. [0786] (b) The isolated CD3⁺ T cells were washed by Staining Buffer (PBS+1% BSA) in round bottom 96-well plate. […] (c) Antibody dilutions were added to each well and mixed with the CD3+ T cells, incubated at 4 degrees for 1 hour. […] (d) Cells were spined at 300 g for 3 minutes, then the supernatants were discarded. [0789] (e) Cells were washed with Staining Buffer. [0790] (f) Step (d) was repeated, and the cells were incubated with secondary antibody in Staining Buffer for 0.5 hours at 4 degrees. [0791] (g) After incubation, step (d)-(e) were repeated. [0792] (h) Cells were resuspended in Staining Buffer and fluorescence signals were recorded by flow cytometry.

[3] = biological target: T2, GPRC5D (G-protein coupled receptor family C group 5 member D), human, on multiple myeloma cell lines (human, UniProt Q9NZD1 1-345); assay: FACS, MOLP-8 cells
T2 construct: whole, on cells; Target as carried by MM.1S, MOLP-8, L363 and RPMI8226 cells
Experimental: as §1
(§2) The binding affinities of the generated humanized Fab-scFv-Fab bispecific antibodies to different multiple myeloma cell lines were evaluated by FACS analysis. The protocol for FACS analysis is identical to that described in Example 3.2, except that different cells were used in this example, i.e., multiple myeloma cell lines (MM.1S, […], L363 and RPMI 8226) were used in this example.

[4] = biological target: T2, GPRC5D (G-protein coupled receptor …); assay: cell-based or functional assay
[5] = biological target: T2, GPRC5D (G-protein coupled receptor …); assay: FACS, MM.1S cells
Experimental: as §1, §2

[6] = biological target: T2, GPRC5D (G-protein coupled receptor …); assay: cell-based or functional assay; remark: listed apart in the source

T1 sequence (P07766 23-207, chain 1 of 3): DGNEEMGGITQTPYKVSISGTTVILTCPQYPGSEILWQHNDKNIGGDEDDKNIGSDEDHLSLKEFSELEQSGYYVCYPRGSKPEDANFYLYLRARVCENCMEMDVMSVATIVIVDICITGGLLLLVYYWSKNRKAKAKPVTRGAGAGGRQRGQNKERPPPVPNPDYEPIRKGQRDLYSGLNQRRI
T1 sequence (P04234 22-171, chain 2 of 3): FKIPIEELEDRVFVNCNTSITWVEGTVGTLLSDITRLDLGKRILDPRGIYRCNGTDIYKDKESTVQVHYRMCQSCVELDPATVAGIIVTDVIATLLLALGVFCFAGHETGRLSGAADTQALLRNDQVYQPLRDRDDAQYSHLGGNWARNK
T1 sequence (P09693 23-182, chain 3 of 3): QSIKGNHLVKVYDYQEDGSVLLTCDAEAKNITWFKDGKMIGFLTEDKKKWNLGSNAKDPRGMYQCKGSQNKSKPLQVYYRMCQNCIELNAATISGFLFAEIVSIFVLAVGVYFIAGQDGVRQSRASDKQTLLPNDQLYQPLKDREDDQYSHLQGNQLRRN
T2 sequence (Q9NZD1 whole entry): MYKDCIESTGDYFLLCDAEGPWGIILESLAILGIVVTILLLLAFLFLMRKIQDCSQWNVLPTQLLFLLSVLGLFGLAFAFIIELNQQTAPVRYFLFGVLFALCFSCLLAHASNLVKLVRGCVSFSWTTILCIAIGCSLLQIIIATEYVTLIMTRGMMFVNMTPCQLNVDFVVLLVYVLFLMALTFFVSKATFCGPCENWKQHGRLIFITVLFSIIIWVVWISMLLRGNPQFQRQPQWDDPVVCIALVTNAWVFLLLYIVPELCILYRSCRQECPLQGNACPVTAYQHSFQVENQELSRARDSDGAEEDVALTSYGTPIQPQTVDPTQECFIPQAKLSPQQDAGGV

B1: JNJ-64407564 (bispecific antibody, V domains shown)
VH 1: QVQLVQSGAEVKKPGASVKVSCKASGYSFTGYTMNWVRQAPGQGLEWMGLINPYNSDTNYAQKLQGRVTMTTDTSTSTAYMELRSLRSDDTAVYYCARVALRVALDYWGQGTLVTVSS
VL 1: DIQMTQSPSSLSASVGDRVTITCKASQNVATHVGWYQQKPGKAPKRLIYSASYRYSGVPSRFSGSGSGTEFTLTISNLQPEDFATYYCQQYNRYPYTFGQGTKLEIK
VH 2: EVQLVESGGGLVQPGGSLRLSCAASGFTFNTYAMNWVRQAPGKGLEWVARIRSKYNNYATYYAASVKGRFTISRDDSKNSLYLQMNSLKTEDTAVYYCARHGNFGNSYVSWFAYWGQGTLVTVSS
VL 2: QTVVTQEPSLTVSPGGTVTLTCRSSTGAVTTSNYANWVQQKPGQAPRGLIGGTNKRAPGTPARFSGSLLGGKAALTLSGVQPEDEAEYYCALWYSNLWVFGGGTKLTVL
notes: construct per WO2018017786A2; also called benchmark antibody
Question: Which results are given for B1?
Answer: MFI (50 µg/ml) [1]: 1030 MFI; EC50 [2]: 11.4 nM; Top (MFI) [2]: 534 MFI

B2: Bis-40E9-L2H3-Y54G.H (bispecific antibody)
heavy: EVQLVQSGAEVKKPGASVKVSCKASGYTFTSYVIHWVRQAPGQGLEWMGYFNPYNDGTKYNEEFKGRVTLTSDKSTSTAYMELRSLRSDDTAVYYCARGGVRRYFDVWGQGTTVTVSS
heavy (part 1 of 2): EVQLVQSGAEVKKPGASVKVSCKASGYTFTSYVIHWVRQAPGQGLEWMGYFNPYNDGTKYNEEFKGRVTLTSDKSTSTAYMELRSLRSDDTAVYYCARGGVRRYFDVWGQGTTVTVSS
heavy (part 2 of 2): GGGGSGGGGSEVQLVQSGAEVKKPGSSVKVSCKASGYTFSSYVIHWVRQAPGQCLEWMGYINPGNDVIKYNEKFKGRVTLTSDKSTSTAYMELSSLRSEDTAVYYCARDSYYSYDGFAYWGQGTLVTVSSGGGGSGGGGSGGGGSGGGGSEIVLTQSPDFQSVTPKEKVTITCSASSSVSYMHWYQQKPDQSPKRLIYDTSKLASGVPSRFSGSGSGTDFTLTINSLEAEDAATYYCQQWSSNPPTFGCGTKVEIKGGGGSGGGGS
light: DIQMTQSPSSLSASVGDRVTITCRASQDIGSNLNWLQQKPGKAIKRLIYATFGLDSGVPSRFSGSRSGTDFTLTISSLQPEDFATYYCQQYASFPYTFGGGTKVEIK
notes: Fab-scFv-Fab (2+1), LALA; not shown: CH1; CL; CH2-CH3 with L234A, L235A; heavy chain constant region with L234A, L235A
Question: Which results are given for B2?
Answer: EC50 [3]: 0.398 nM; Top (MFI) [3]: 952 MFI; EC50 (nM), luciferase assay, L363 [4]: 0.0525 nM; EC50 (nM), luciferase assay, MM.1S [4]: 0.0506 nM; EC50 (nM), luciferase assay, MOLP-8 [4]: 0.0455 nM; Top (RLU), luciferase assay, L363 [4]: 776 RLU; Top (RLU), luciferase assay, MM.1S [4]: 5840 RLU; Top (RLU), luciferase assay, MOLP-8 [4]: 1060 RLU; MFI (50 µg/ml) [1]: 137 MFI; EC50 [5]: 8.93 nM; Top (MFI) [5]: 1330 MFI; IC50 (nM), T-Cell Dependent Cytotoxicity, MM.1S [6]: 0.00726 nM; IC50 (nM), T-Cell Dependent Cytotoxicity, MOLP-8 [6]: 0.00117 nM; IC50 (nM), T-Cell Dependent Cytotoxicity, RPMI8226 [6]: 0.0453 nM; Top (%), T-Cell Dependent Cytotoxicity, MM.1S [6]: 75.5%; Top (%), T-Cell Dependent Cytotoxicity, MOLP-8 [6]: 68.7%; Top (%), T-Cell Dependent Cytotoxicity, RPMI8226 [6]: 10.4%

B3: Bis-40E9-L2H3-D105R.H (bispecific antibody)
heavy 1: not shown
heavy 2: EVQLVQSGAEVKKPGASVKVSCKASGYTFTSYVIHWVRQAPGQGLEWMGYFNPYNDGTKYNEEFKGRVTLTSDKSTSTAYMELRSLRSDDTAVYYCARGGVRRYFDVWGQGTTVTVSSASTKGPSVFPLAPSSKSTSGGTAALGCLVKDYFPEPVTVSWNSGALTSGVHTFPAVLQSSGLYSLSSVVTVPSSSLGTQTYICNVNHKPSNTKVDKKVEPKSCGGGGSGGGGSEVQLVQSGAEVKKPGSSVKVSCKASGYTFSSYVIHWVRQAPGQCLEWMGYINPYNDVIKYNEKFKGRVTLTSDKSTSTAYMELSSLRSEDTAVYYCARDSYYSYRGFAYWGQGTLVTVSSGGGGSGGGGSGGGGSGGGGSEIVLTQSPDFQSVTPKEKVTITCSASSSVSYMHWYQQKPDQSPKRLIYDTSKLASGVPSRFSGSGSGTDFTLTINSLEAEDAATYYCQQWSSNPPTFGCGTKVEIKGGGGSGGGGSDKTHTCPPCPAPEAAGGPSVFLFPPKPKDTLMISRTPEVTCVVVDVSHEDPEVKFNWYVDGVEVHNAKTKPREEQYNSTYRVVSVLTVLHQDWLNGKEYKCKVSNKALPAPIEKTISKAKGQPREPQVCTLPPSREEMTKNQVSLSCAVKGFYPSDIAVEWESNGQPENNYKTTPPVLDSDGSFFLVSKLTVDKSRWQQGNVFSCSVMHEALHNHYTQKSLSLSPGK
light: DIQMTQSPSSLSASVGDRVTITCRASQDIGSNLNWLQQKPGKAIKRLIYATFGLDSGVPSRFSGSRSGTDFTLTISSLQPEDFATYYCQQYASFPYTFGGGTKVEIKRTVAAPSVFIFPPSDEQLKSGTASVVCLLNNFYPREAKVQWKVDNALQSGNSQESVTEQDSKDSTYSLSSTLTLSKADYEKHKVYACEVTHQGLSSPVTKSFNRGEC
notes: Fab-scFv-Fab (2+1), LALA
Question: Which results are given for B3?
Answer: EC50 [3]: 0.21 nM; Top (MFI) [3]: 1090 MFI; EC50 (nM), luciferase assay, L363 [4]: 0.0397 nM; EC50 (nM), luciferase assay, MM.1S [4]: 0.423 nM; EC50 (nM), luciferase assay, MOLP-8 [4]: 0.0423 nM; Top (RLU), luciferase assay, L363 [4]: 942 RLU; Top (RLU), luciferase assay, MM.1S [4]: 5240 RLU; Top (RLU), luciferase assay, MOLP-8 [4]: 1080 RLU; MFI (50 µg/ml) [1]: 247 MFI; EC50 [5]: 6.16 nM; Top (MFI) [5]: 1070 MFI; IC50 (nM), T-Cell Dependent Cytotoxicity, MM.1S [6]: 0.00579 nM; IC50 (nM), T-Cell Dependent Cytotoxicity, MOLP-8 [6]: 0.00463 nM; IC50 (nM), T-Cell Dependent Cytotoxicity, RPMI8226 [6]: 0.0366 nM; Top (%), T-Cell Dependent Cytotoxicity, MM.1S [6]: 75.7%; Top (%), T-Cell Dependent Cytotoxicity, MOLP-8 [6]: 70.1%; Top (%), T-Cell Dependent Cytotoxicity, RPMI8226 [6]: 12.4%

B4: Bis-40E9-L2H3-Y101F.H (bispecific antibody)
heavy 1: not shown
heavy 2: EVQLVQSGAEVKKPGASVKVSCKASGYTFTSYVIHWVRQAPGQGLEWMGYFNPYNDGTKYNEEFKGRVTLTSDKSTSTAYMELRSLRSDDTAVYYCARGGVRRYFDVWGQGTTVTVSSASTKGPSVFPLAPSSKSTSGGTAALGCLVKDYFPEPVTVSWNSGALTSGVHTFPAVLQSSGLYSLSSVVTVPSSSLGTQTYICNVNHKPSNTKVDKKVEPKSCGGGGSGGGGSEVQLVQSGAEVKKPGSSVKVSCKASGYTFSSYVIHWVRQAPGQCLEWMGYINPYNDVIKYNEKFKGRVTLTSDKSTSTAYMELSSLRSEDTAVYYCARDSFYSYDGFAYWGQGTLVTVSSGGGGSGGGGSGGGGSGGGGSEIVLTQSPDFQSVTPKEKVTITCSASSSVSYMHWYQQKPDQSPKRLIYDTSKLASGVPSRFSGSGSGTDFTLTINSLEAEDAATYYCQQWSSNPPTFGCGTKVEIKGGGGSGGGGSDKTHTCPPCPAPEAAGGPSVFLFPPKPKDTLMISRTPEVTCVVVDVSHEDPEVKFNWYVDGVEVHNAKTKPREEQYNSTYRVVSVLTVLHQDWLNGKEYKCKVSNKALPAPIEKTISKAKGQPREPQVCTLPPSREEMTKNQVSLSCAVKGFYPSDIAVEWESNGQPENNYKTTPPVLDSDGSFFLVSKLTVDKSRWQQGNVFSCSVMHEALHNHYTQKSLSLSPGK
light: DIQMTQSPSSLSASVGDRVTITCRASQDIGSNLNWLQQKPGKAIKRLIYATFGLDSGVPSRFSGSRSGTDFTLTISSLQPEDFATYYCQQYASFPYTFGGGTKVEIKRTVAAPSVFIFPPSDEQLKSGTASVVCLLNNFYPREAKVQWKVDNALQSGNSQESVTEQDSKDSTYSLSSTLTLSKADYEKHKVYACEVTHQGLSSPVTKSFNRGEC
notes: Fab-scFv-Fab (2+1), LALA
Question: How did the EC50 [3] turn out when B4 was run?
Answer: 0.466 nM

Question: What about the “Top (MFI)” value [3] of the same binder?
Answer: 876 MFI

Question: And the “EC50 (nM), luciferase assay, L363” value [4]?
Answer: 0.155 nM

Question: And the “EC50 (nM), luciferase assay, MM.1S” value [4]?
Answer: 0.0398 nM

Question: What about the “Top (RLU), luciferase assay, L363” value [4] of the same binder?
Answer: 1600 RLU

Question: What about the “Top (RLU), luciferase assay, MM.1S” value [4] of the same binder?
Answer: 5630 RLU

Question: And the “Top (RLU), luciferase assay, MOLP-8” value [4]?
Answer: 1470 RLU

Question: And the “MFI (50 µg/ml)” value [1]?
Answer: 207 MFI

Question: And the EC50 [5]?
Answer: 10.1 nM

Question: What about the “Top (MFI)” value [5] of the same binder?
Answer: 1150 MFI

Question: What about the “IC50 (nM), T-Cell Dependent Cytotoxicity, MM.1S” value [6] of the same binder?
Answer: 0.00723 nM

Question: And the “IC50 (nM), T-Cell Dependent Cytotoxicity, MOLP-8” value [6]?
Answer: 0.00499 nM

Question: What about the “IC50 (nM), T-Cell Dependent Cytotoxicity, RPMI8226” value [6] of the same binder?
Answer: 0.0226 nM

Question: What about the “Top (%), T-Cell Dependent Cytotoxicity, MM.1S” value [6] of the same binder?
Answer: 62.8%

Question: What about the “Top (%), T-Cell Dependent Cytotoxicity, MOLP-8” value [6] of the same binder?
Answer: 77.1%

Question: What about the “Top (%), T-Cell Dependent Cytotoxicity, RPMI8226” value [6] of the same binder?
Answer: 12.2%

From patent US20260193348A1 (ANTENGENE BIOLOGICS, published 2026)
